Data: patent US20190100602A1 (INSERM INSTITUT NATIONAL DE LA SANT ET DE LA RECHERCHE M …, published 2019)
Numbering of substitutions follows the chain as printed.

B1: KB-AT-004 (VHH)
VHH: VQLQQSGGGLVQPGGSLRLSCAASAMTFSIRAWAWYRQAPGKQRELVASIGTGDITNYADSVKGRFTISRDNAKNTFYLQMNSLKPEDTAVYYCNGYRSTYAWGQGTQVTVSS
notes: Monovalent anti-antithrombin single-domain antibody; also called sdAb KB-AT-004
B2: KB-AT-002 (VHH)
VHH: QVQLVQSGGGLVQAGGSLRLSCAASGRTFNNNGMGWFRQAPGKEREFVAAISWSGGSTYYADSVKGRYIMSRDNAKNTVYLQMNSLKPEDTAVYYCAARTRYNSGLFSRNYDYWGQGTQVTVSS
notes: Monovalent anti-antithrombin single-domain antibody; also called sdAb KB-AT-002
B3: KB-AT-006 (VHH)
VHH: B2 VHH with V5Q, N30S, G55S, I69T, M70I, L106Y, S108T
notes: Monovalent anti-antithrombin single-domain antibody; also called sdAb KB-AT-006
B4: KB-AT-001 (VHH)
VHH: QVQLQQSGGDLAQRGGSLRLSCAASGRTFRNYVMGWFRQAPGKDPEFIAGINRSGAITYYGDSVKGRFTISRDNAKNTVSLQMNSLEPEDTAVYYCAAGETTWSIRRDDYDYWGQGTQVTVSS
notes: Monovalent anti-antithrombin single-domain antibody; also called sdAb KB-AT-001
B5: KB-AT-007 (VHH)
VHH: B4 VHH with D10G, A12V, R14A
notes: Monovalent anti-antithrombin single-domain antibody; same CDRs as KB-AT-001; also called sdAb KB-AT-007
B6: KB-AT-005 (VHH)
VHH: EVQLVESGGGLVQPGGSLRLSCEASGRDFNDAALGWSRQVPGKARETVAMITSGGVRNYAETVKDRFTISRDNAKNTVYLDMNNLQPDDTGVYYCKADSFKGDYDTSWYLYWGQGTQVTVSS
notes: Monovalent anti-antithrombin single-domain antibody; also called sdAb KB-AT-005

biological target: T1, canine antithrombin (canine); assay: ELISA, sdAb coated, plasma 1/4, bound antithrombin probed with polyclonal anti-antithrombin; grade by OD
T1 construct: Native protein in plasma diluted 1/4; also called canine AT; antithrombin in canine plasma
Protocol: (§1) sdAbs KB-AT-001, -002. -003, -004, -005, -006, and -007 were immobilized (10 microgram/ml) in 10 mM NaHCO₃, 50 mM Na2CO3 (pH 9.5) in a volume of 50 microliter in half-well microtiter plates (Greiner Bio-One, Les Ulis, France) for 16 h at 4° C. As a positive control, polyclonal anti-antithrombin antibodies (MATIII-EIA kit, Affinity biologicals, Ancaster Canada) were immobilized in a similar fashion. As a negative control, the anti-von Willebrand sdAb KB-VWF-006 was immobilized. After washing the wells three times with 100 microliter/well using Tris-buffered saline (pH 7.6) supplemented with 0.1% Tween-20 (TBS-T), wells were blocked with 100 microliter/well of TBS-T supplemented with 3% bovine serum albumin (BSA) for 30 min at 37° C. Wells were washed as described above, and subsequently the following plasma preparations (diluted ¼ in TBS-T/3% BSA, 100 microliter per well, 2 hours at 37° C.) were added to each of the immobilized sdAbs and both types of control wells: rabbit plasma, canine plasma, simian plasma, bovine plasma, porcine plasma, rat plasma, murine plasma and human plasma.
(§2) Wells were then washed three times with 100 microliter/well using TBS-T. Bound antithrombin was probed with peroxidase-labeled polyclonal anti-antithrombin antibodies (MATIII-EIA kit, Affinity biologicals, Ancaster Canada; diluted 1/100) for 2 hours at 37° C. with 50 microliter per well. Wells were then washed three times with 100 microliter/well using TBS-T. Residual peroxidase activity was detected by measuring peroxidase-mediated hydrolysis of 3,3′,5,5′-tetramethylbenzidine.
(§3) Negative binding (−) was defined as optical density (OD) being ≤0.1, moderate positive binding (+) was defined as OD being >0.1 and <0.5, strongly positive binding (++) was defined as OD being ≥0.5. […] All plasma preparations had moderate or strongly positive binding to the positive control (polyclonal anti-antithrombin antibodies).

Row | OD | Binder
1 | 0.1 to 0.5 od | B1
2 | ≥ 0.5 od | B2
3 | 0.1 to 0.5 od | B3

biological target: T2, rabbit antithrombin (rabbit); assay: as above
T2 construct: Native protein in plasma diluted 1/4; also called rabbit AT; antithrombin in rabbit plasma
Protocol: as §1, §2, §3

Row | OD | Binder
4 | 0.1 to 0.5 od | B4
5 | ≥ 0.5 od | B2
6 | ≥ 0.5 od | B3

biological target: T3, simian antithrombin (simian); assay: as above
T3 construct: Native protein in plasma diluted 1/4; also called simian AT; antithrombin in simian plasma
Protocol: as §1, §2, §3

Row | OD | Binder
7 | 0.1 to 0.5 od | B1
8 | ≥ 0.5 od | B4
9 | ≥ 0.5 od | B5
10 | ≥ 0.5 od | B2
11 | ≥ 0.5 od | B3
12 | 0.1 to 0.5 od | B6

biological target: T4, porcine antithrombin (porcine); assay: as above
T4 construct: Native protein in plasma diluted 1/4; also called porcine AT; antithrombin in porcine plasma
Protocol: as §1, §2, §3

Row | OD | Binder
13 | 0.1 to 0.5 od | B1
14 | ≥ 0.5 od | B2
15 | 0.1 to 0.5 od | B3

biological target: T5, rat antithrombin (rat, UniProt Q8VHJ4); assay: as above
T5 construct: Native protein in plasma diluted 1/4; also called rat AT; antithrombin in rat plasma
Protocol: as §1, §2, §3

Row | OD | Binder
16 | 0.1 to 0.5 od | B1
17 | 0.1 to 0.5 od | B4
18 | ≥ 0.5 od | B2
19 | 0.1 to 0.5 od | B3

biological target: T6, human antithrombin (human, UniProt P01008 33-464); assay: as above
T6 construct: Serpin; the description says that AT consists of 432 amino acids; also called purified human antithrombin; AT
Protocol: as §1, §2, §3

T6 sequence (P01008 33-464 limits assumed): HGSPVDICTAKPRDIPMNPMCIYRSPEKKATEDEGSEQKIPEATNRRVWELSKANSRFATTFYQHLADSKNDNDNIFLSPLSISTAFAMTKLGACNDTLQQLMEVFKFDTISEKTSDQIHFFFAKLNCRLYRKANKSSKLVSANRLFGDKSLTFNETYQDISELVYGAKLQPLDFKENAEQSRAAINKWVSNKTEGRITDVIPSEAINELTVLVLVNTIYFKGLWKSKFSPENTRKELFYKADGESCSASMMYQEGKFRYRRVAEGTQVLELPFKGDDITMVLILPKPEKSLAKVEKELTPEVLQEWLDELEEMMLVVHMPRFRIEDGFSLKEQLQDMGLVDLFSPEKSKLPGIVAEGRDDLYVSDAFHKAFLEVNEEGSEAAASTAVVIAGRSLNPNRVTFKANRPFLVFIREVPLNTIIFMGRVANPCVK

Row | OD | Binder
20 | 0.1 to 0.5 od | B1
21 | 0.1 to 0.5 od | B4
22 | 0.1 to 0.5 od | B5
23 | ≥ 0.5 od | B2
24 | 0.1 to 0.5 od | B3
25 | 0.1 to 0.5 od | B6

biological target: T7, bovine antithrombin (bovine, UniProt P41361 33-465); assay: as above
T7 construct: Native protein in plasma diluted 1/4; also called bovine AT; antithrombin in bovine plasma
Protocol: as §1, §2, §3

T7 sequence (P41361 33-465): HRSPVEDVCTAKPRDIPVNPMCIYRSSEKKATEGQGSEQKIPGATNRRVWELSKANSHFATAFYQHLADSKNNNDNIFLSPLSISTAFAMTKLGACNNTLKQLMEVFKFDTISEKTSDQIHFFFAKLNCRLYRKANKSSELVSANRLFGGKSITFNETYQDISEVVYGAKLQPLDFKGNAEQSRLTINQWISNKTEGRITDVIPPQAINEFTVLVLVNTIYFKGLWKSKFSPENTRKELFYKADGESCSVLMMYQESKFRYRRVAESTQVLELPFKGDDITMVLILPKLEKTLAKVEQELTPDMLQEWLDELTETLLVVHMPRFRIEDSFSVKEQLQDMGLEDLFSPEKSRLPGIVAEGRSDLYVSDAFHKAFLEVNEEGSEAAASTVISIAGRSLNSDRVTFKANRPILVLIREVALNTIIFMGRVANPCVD

Row | OD | Binder
26 | ≥ 0.5 od | B2

biological target: T8, murine antithrombin (mouse, UniProt P32261 33-465); assay: as above
T8 construct: also called mouse antithrombin; murine AT
Protocol: as §1, §2, §3

T8 sequence (P32261 33-465 limits assumed): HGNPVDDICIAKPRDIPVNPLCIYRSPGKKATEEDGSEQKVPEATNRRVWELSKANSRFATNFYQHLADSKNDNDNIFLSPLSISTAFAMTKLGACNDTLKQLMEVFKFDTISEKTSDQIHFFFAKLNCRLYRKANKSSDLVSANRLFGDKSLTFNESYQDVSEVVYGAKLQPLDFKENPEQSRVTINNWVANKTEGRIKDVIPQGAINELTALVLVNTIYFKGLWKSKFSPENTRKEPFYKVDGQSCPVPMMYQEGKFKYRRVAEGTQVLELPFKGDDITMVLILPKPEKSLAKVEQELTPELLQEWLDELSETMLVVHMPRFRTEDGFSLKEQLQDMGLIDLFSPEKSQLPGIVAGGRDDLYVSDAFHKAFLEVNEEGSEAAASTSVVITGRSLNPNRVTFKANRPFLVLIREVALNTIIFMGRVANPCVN

Row | OD | Binder
27 | ≥ 0.5 od | B1
28 | ≥ 0.5 od | B4
29 | 0.1 to 0.5 od | B5
30 | ≥ 0.5 od | B2
31 | 0.1 to 0.5 od | B3
32 | 0.1 to 0.5 od | B6

biological target: T1, canine antithrombin; assay: ELISA, sdAb coated, plasma 1/4, bound antithrombin probed with polyclonal anti-antithrombin
Protocol: as §1, §2, §3

Row | OD | Binder
33 | ≤ 0.1 od | B4
34 | ≤ 0.1 od | B5
35 | ≤ 0.1 od | B6

biological target: T2, rabbit antithrombin; assay: as above
Protocol: as §1, §2, §3

Row | OD | Binder
36 | ≤ 0.1 od | B1
37 | ≤ 0.1 od | B5
38 | ≤ 0.1 od | B6

biological target: T4, porcine antithrombin; assay: as above
Protocol: as §1, §2, §3

Row | OD | Binder
39 | ≤ 0.1 od | B4
40 | ≤ 0.1 od | B5
41 | ≤ 0.1 od | B6

biological target: T5, rat antithrombin; assay: as above
Protocol: as §1, §2, §3

Row | OD | Binder
42 | ≤ 0.1 od | B5
43 | ≤ 0.1 od | B6

biological target: T7, bovine antithrombin; assay: as above
Protocol: as §1, §2, §3

Row | OD | Binder
44 | ≤ 0.1 od | B1
45 | ≤ 0.1 od | B4
46 | ≤ 0.1 od | B5
47 | ≤ 0.1 od | B3
48 | ≤ 0.1 od | B6

biological target: T6, human antithrombin; assay: cell-based or functional assay

Row | % antithrombin neutralization (thrombin amidolytic activity on S-2238, no heparin) | Binder
49 | 55% | B1
50 | 62% | B4
51 | 61% | B5
52 | 65% | B2
53 | 58% | B3
54 | 57% | B6

biological target: T6, human antithrombin; assay: cell-based or functional assay; remark: another data set of the same source

Row | percentage of neutralization of antithrombin-mediated factor Xa inhibition, with LMW-heparin | percentage of neutralization of antithrombin-mediated thrombin inhibition, with unfractionated heparin | Binder
55 | < 15% | < 5% | B1
56 | < 15% | < 5% | B4
57 | < 15% | < 5% | B5
58 | < 15% | < 5% | B2
59 | < 15% | < 5% | B3
60 | < 15% | < 5% | B6

biological target: T6, human antithrombin; assay: BLI (Octet-QK), sdAb coupled to sensor, antithrombin 12.5-50 ug/ml; apparent KD
Protocol: The interaction between sdAbs KB-AT-001, KB-AT-002, KB-AT-003 and KB-AT-006 versus human antithrombin was further analyzed via biolayer-interferometry analysis using Octet-QK equipment in order to determine apparent dissociation constants (KD,app). To this end, sdAbs KB-AT-001, KB-AT-002, KB-AT-003 and KB-AT-006 were diluted in 0.1 M Mes (pH 5.0) to a concentration of 200 microgram/ml for coupling to EDC/NHS-activated amine-reactive biosensors (Fort6bio, Menlo Park, Calif., USA). Sensors were rehydrated in 0.2 ml 0.1 M MES, pH 5.0 for 300 sec. Sensors were then activated via incubation with 0.1 ml 0.2 M EDC/0.095 M NHS mixture for 300 sec and subsequently incubated with 0.1 ml sdAb-solution for 600 sec. […] Following this association phase, sensors were transferred to wells containing PBS-T and incubated for 900 sec, allowing dissociation of the antithrombin-sdAb complex. Obtained data were subsequently analyzed using Octet-QK data analysis software (Origin vs 4) to estimate KD,app.

Row | Kd | Binder
61 | 14 nM | B4
62 | 4 nM | B2
63 | 22 nM | B3

biological target: T6, human antithrombin; assay: ELISA: sdAb coated on the plate, antithrombin added in solution; the concentration is that of antithrombin
Protocol: (§4) sdAbs recognizing antithrombin (KB-AT-001, -002, -003, -004, -005, -006, and -007) were immobilized (5 microgram/ml) in 10 mM NaHCO₃, 50 mM Na2CO3 (pH 9.5) in a volume of 50 microliter in half-well microtiter plates (Greiner Bio-One, Les Ulis, France) for 16 h at 4° C. After washing the wells three times with 100 microliter/well using Tris-buffered saline (pH 7.6) supplemented with 0.1% Tween-20 (TBS-T), wells were blocked with 100 microliter/well of TBS-T supplemented with 5% skimmed milk for 30 min at 37° C. Wells were washed as described above, and subsequently different concentrations of purified human antithrombin or murine antithrombin (0-5 micromolar diluted in Tris-buffered saline (pH 7.6) supplemented with 5% skimmed milk; 50 microliter/well) were added to each of the immobilized sdAbs and incubated for 2 hours. Wells were then washed three times with 100 microliter/well using TBS-T. Bound antithrombin was probed with peroxidase-labeled polyclonal rabbit anti-antithrombin antibodies (Diagnostica Stago, Asnièrs-sur-Seine, France; Dilution 1/100) for 1 hour at 37° C. with 50 microliter per well. Wells were then washed three times with 100 microliter/well using TBS-T. Residual peroxidase activity was detected by measuring peroxidase-mediated hydrolysis of 3,3′,5,5′-tetramethylbenzidine. OD-values were plotted against antithrombin concentrations (FIG. 1).

Row | EC50 (read off the curve) | Binder
64 | ~700 nM | B4
65 | ~600 nM | B2
66 | ~500 nM | B3

biological target: T8, murine antithrombin; assay: as above
Protocol: as §4

Row | EC50 (read off the curve) | Binder
67 | ~600 nM | B4
68 | ~500 nM | B2
69 | ~400 nM | B6
